Biological target: soluble CD20^Avi
Assay: SEC-MALS

stoichiometry N: 2
Substance: soluble CD20^Avi
